Experiments:
[1] = system: Nc1ncnc2c1ncn2[C@@H]1O[C@H](COP(=O)(O)OP(=O)(O)OP(=O)(O)O)[C@@H](O)[C@H]1O; assay: coupled ATP hydrolysis assay; format: biochemical, Escherichia coli; settings: pH 7.5
[2] = molecular target: ClpXP (sc6ClpXΔN-bio with ClpP; ATP site on ClpX) (Escherichia coli, UniProt P0A6H1, C169S/K408E); assay: bio-layer interferometry, ClpP association to immobilised ClpX; format: binding
[3] = molecular target: ^sc6ClpX^ΔN-bio single-chain ClpX^ΔN pseudohexamer (E. coli); assay: BLI
[4] = system: ^sc6ClpX^ΔN-bio single-chain ClpX^ΔN pseudohexamer; assay: BLI
[5] = no ClpP, Hill n = 2.4, 10 mM MgCl2, 30 °C
[6] = excess ClpP (1 μM), Hill n = 2.2, 10 mM MgCl2, 30 °C

In the case of “sc6ClpXΔN-bio (Escherichia coli K-12; C169S/K408E)”, the K0.5 [1, 5] is reported as 42 ± 3 µM and the kcat [1, 5] is reported as 73 min^−1 enz^−1.

For `Nc1ncnc2c1ncn2[C@@H]1O[C@H](COP(=O)(O)OP(=O)(O)OP(=O)(O)O)[C@@H](O)[C@H]1O` [ATP], the EC50 [2] was 100 ± 2 µM.

Work on “ClpXP (sc6ClpXΔN-bio with ClpP; ATP site on ClpX) (Escherichia coli K-12; C169S/K408E)” yielded a K0.5 [1, 6] of 29 µM and a kcat [1, 6] of 41 min^−1 enz^−1.

With E. coli ClpP (C91V, C113A) (enzyme) the Kd [3] was < 0.1 nM, the dissociation rate constant in the absence of nucleotide or presence of ADP [3] was < 0.07 s⁻¹ and the fold more kinetically stable in 7:1 ADP:ATP against ADP alone [3] was 100 fold. The half-life of ADEP-2B-induced dissociation [3] was 1 s, the half-life of dissociation in ADP (complex formed with ATP) [3] was 5 s and the half-life of dissociation in ADP (complex formed with ATPγS) [3] was 20 s. The half-maximal binding, total ClpP concentration [3] was 160 pM and the maximum dissociation rate constant with ADEP-2B (hyperbolic fit) [3] was 2 s⁻¹.

For E. coli ClpP (C91V, C113A), the “kobs of association at 200 nM ClpP, maximal fitted value against ATP” value [4] was 0.138 ± 0.001 s^−1 for kobs, the “maximal rate of kobs-1 (double-exponential association, amplitude ~70%)” value [4] was “the maximal rate was 22 ± 7 s^−1” and the “maximal rate of kobs-2 (double-exponential association, amplitude ~30%)” value [4] was “the maximal rate was 0.54 ± 0.2 s^−1”.

Source: article PMC5087277 (ACS chemical biology, 2016)
